Target: T1, C5aR^D282A (Homo sapiens, UniProt P21730, D282A)
T1 construct: Flag (N); His8 (C); made in house; host or cells: HEK-293S cells (BacMam baculovirus)
T1 sequence (P21730 1-350 D282A): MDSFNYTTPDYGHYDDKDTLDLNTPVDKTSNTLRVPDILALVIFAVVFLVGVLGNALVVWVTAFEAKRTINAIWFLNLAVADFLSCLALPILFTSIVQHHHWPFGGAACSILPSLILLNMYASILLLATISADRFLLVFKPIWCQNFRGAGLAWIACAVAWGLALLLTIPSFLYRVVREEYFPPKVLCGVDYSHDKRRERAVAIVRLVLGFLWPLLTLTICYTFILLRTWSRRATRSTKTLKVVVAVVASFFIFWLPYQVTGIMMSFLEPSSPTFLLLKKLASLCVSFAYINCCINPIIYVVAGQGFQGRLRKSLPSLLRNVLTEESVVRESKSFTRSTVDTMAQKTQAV
Experiment: 35S-GTPγS binding assay, D282A mutant
Format: biochemical
Conditions: increased concentration of C5a, Fig. S7
Protocol: Mutant variants (D282A, D282N, and R175V/Y258V) were generated based on the wtC5aR construct and fully sequenced. Mutant variants were expressed following the same method as for wtC5aR except for some modifications. HEK-293S cells expressing each mutant were pelleted by centrifugation and resuspended in 20 ml buffer containing 20 mM HEPES pH 7.5, 100 mM NaCl, 0.2 μg ml^−1 leupeptin, and 150 μg ml^−1 benzamidine. After 20 min incubation at 25 °C, 20 ml 2X solubilization buffer containing 20 mM HEPES pH 7.5, 100 mM NaCl, 1% dodecyl-maltoside (DDM), 0.2% cholesterol hemisuccinate (CHS), 20% glycerol, 0.2 μg ml^−1 leupeptin, 150 μg ml^−1 benzamidine, and 5 U Salt Active Nuclease (Sigma) was added. Cell membranes were solubilized for 1.5 h at 4 °C. […]
For the ^35S-GTPγS binding assays, the membrane of HEK293S GnTI^− cells expressing wtC5aR (~200 µg ml^−1) or mutant variants was incubated with 200 nM purified Gi protein for 30 min on ice in buffer containing 20 mM HEPES pH 7.5, 100 mM NaCl, 5 mM MgCl2, 3 μg ml^−1 BSA, 0.1 μM TCEP, and 5 μM GDP to get the receptor and Gi complex. […] The radiation of bound ^35S-GTPγS was measured on a Beckman LS6500 scintillation counter to determine the binding of ^35S-GTPγS to Gi induced by C5aR activation. […]

B1: C5a: C5a, a large 74-amino acid glycoprotein; endogenous ligand of C5aR (His6-tag at N-terminal end for AFM tips) (protein)
chain: TLQKKIEEIAAKYKHSVVKKCCYDGACVNNDETCEQRAARISLGPRCIKAFTECCVVASQLRANISHKDMQLGR
modifications: left off: His6, N-terminal, kept
Gi-protein activation vs C5aR^WT: strong reduction in the Gi-protein activation
